Data: patent US20200377587A1 (NANTBIO, published 2020)
Where “and” joins values, the source holds several entries; their conditions need not be identical. Equal values may be shown once.

Tests used:
IL-8 [1] = biological target: T1, IL-8 (UniProt P10145 28-99, limits assumed); test: SPR, immobilized IL-8, scFv, 25 C
T1 construct: also called Interleukin-8; immobilized IL-8
T1 sequence (looked up): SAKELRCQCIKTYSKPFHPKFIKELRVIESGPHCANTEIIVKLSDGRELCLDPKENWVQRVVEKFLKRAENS
Protocol: (§1) Here, scFv and corresponding humanized IgG₁ were prepared using the sequences as indicated, and KD was determined using SPR with immobilized IL-8 as […] on the chip surface. All values are expressed as nanoM values at temperatures as indicated.

IL-8 [2] = biological target: T1, IL-8; test: SPR, immobilized IL-8, IgG, 37 C
Protocol: as §1

IL-8 [3] = biological target: T1, IL-8; test: SPR, immobilized IL-8, IgG1, 25 C
Protocol: as §1

IL-8 [4] = biological target: T1, IL-8; test: SPR, IgG1, 37 C, pH 7.4, preliminary KD, lowest and highest value
Text: (§2) The inventors contemplate that the binding affinities of the scFv, recombinant antibody or fragment thereof, to IL-8 may be different due to the structural differences even if the scFv, recombinant antibody or fragment thereof, are generated using the same amino acid sequences of VH segment and/or VL segments. For example, Table 2 provides different affinities (measured in KD value) of scFv and recombinant antibody (IgG1) of several clones. Clone 49-31 is a scFv or a recombinant antibody (IgG1) generated using amino acid sequences encoding VH segment (SEQ ID No. 1) and VL segment (SEQ ID No. 16), Clone 43-2 is a scFv or a recombinant antibody (IgG1) generated using amino acid sequences encoding VH segment (SEQ ID No. 8) and VL segment (SEQ ID No. 23), and Clone 43-12 is a scFv or a recombinant antibody (IgG1) generated using amino acid sequences encoding VH segment (SEQ ID No.10) and VL segment (SEQ ID No. 25). Preliminary KD values are determined by surface plasmon resonance measurement, and highest and lowest values are shown to estimate the range of the affinities to IL-8.

IL-8 [5] = biological target: T1, IL-8; test: SPR, IgG1, 25 C, pH 7.4, preliminary KD
Text: as §2

IL-8 [6] = biological target: T1, IL-8; test: SPR, scFv, preliminary KD
Text: as §2

IL-8 [7] = biological target: T1, IL-8; test: SPR, IgG1, 37 C, pH 7.4, preliminary KD; IgG1, 37 C, pH 7.4
Text: as §2

IL-8 [8] = biological target: T1, IL-8; test: SPR, IgG1, 25 C, pH 7.4, preliminary KD, lowest and highest value; lowest value of the range; IgG1, 25 C, pH 7.4
Text: as §2

IL-8 [9] = biological target: T1, IL-8; test: SPR, IgG1, 25 C, pH 6.0, preliminary KD, lowest and highest value
Text: as §2

IL-8 [10] = biological target: T1, IL-8; test: SPR, lower panel; no pH label is printed on this sheet (the lower panel of Fig.4A is pH6.0; the text names pH 7.4 and pH 6.0)
Protocol: (§3) In yet another set of experiments, the inventors used affinity maturation (here: random mutagenesis of CDR regions in VH and VL chains and mRNA display selection) of one previously identified IL-8 binder (here: 43-12, sequence in Table 1), and SPR analysis was performed on selected mutant forms using two different pH conditions, pH 7.4 and pH 6.0.

IL-8 [11] = biological target: T1, IL-8; test: SPR, upper panel; no pH label is printed on this sheet (the upper panel of Fig.4A is pH7.4; the text names pH 7.4 and pH 6.0)
Protocol: as §3

IL-8 [12] = biological target: T1, IL-8; test: SPR, IgG1, 25 C, pH 7.4, preliminary KD, lowest and highest value
Text: as §2

IL-8 [13] = biological target: T1, IL-8; test: SPR, IgG1, 37 C, pH 7.4, preliminary KD
Text: as §2

Binder | Kd (IL-8 [1]) [nM] | Kd (IL-8 [2]) [nM] | Kd (IL-8 [3]) [nM] | other results
scFv 49-7 (scFv, V domains shown, also called Clone 49-7) VH: EVQLVESGGGLVQPGGSLRLSCAASGFTFSSYAMHWVRQAPGKGLEWVSAISNSGASTYYADSVKGRFTISRDNSKNTLYLQMNSLRAENTAVYYCARDLMRWWIDGFDVWGQGTLVTVSS VL: not shown | 0.087 to 0.17 |  |  | 
scFv 49-18 (scFv, V domains shown, also called Clone 49-18) VH: EVQLVESGGGLVQPGGSLRLSCAASGFTFSSYAMNWVRQAPGKGLEWVSAISWSGGNTYYADSVKGRFTISRDNSKNTLYLQMNSLRAEDTAVYYCARDLYAGYWGFDVWGQGTLVTVSS VL: not shown | 0.41 to 0.89 |  |  | 
recombinant antibody (IgG1) 43-2 (antibody, V domains shown, IgG1 ('corresponding humanized IgG1'); also called 43-2 IgG1; Clone 43-2) VH: EVQLVESGGGLVQPGGSLRLSCAASGFTFSSYAMHWVRQAPGKGLEWVSAISGSGGKTYYADSVKGRFTISRDNSKNTLYLQMNSLRAEDTAVYYCARDREAPFYTVYVTGFDVWGQGTLVTVSS VL: DIQMTQSPSSLSASVGDRVTITCQASQDISNYLNWYQQKPGKAPKLLIYDASNLETGVPSRFSGSGSGTDFTFTISSLQPEDIATYYCQQDADTPLTFGQGTKVEIK |  | 0.72 to 0.89 | 0.79 | Kd (IL-8 [4]): 0.72 nM and 0.89 nM; Kd (IL-8 [5]): 0.79 nM
scFv 49-22 (scFv, V domains shown, also called Clone 49-22) VH: EVQLVESGGGLVQPGGSLRLSCAASGFTFTSYAMHWVRQAPGKGLEWVSAISGSGGSTYYADSVKGRFTISRDNSKNTLYLQMNSLRAEDTAVYYCARDLDMFVPFWPAFDVWGQGTLVTVSS VL: DIQMTQSPSSLSASVGDRVTITCQASQDISNYLNWYQQKPGKAPKLLIYDASNLETGVPSRFSGSGSGTDFTFTISSLQPEDIATYYCQQASDTPLTFGQGTKVEIK | 0.11 to 0.114 |  |  | 
scFv 43-2 (scFv, V domains shown, also called Clone 43-2) VH: EVQLVESGGGLVQPGGSLRLSCAASGFTFSSYAMHWVRQAPGKGLEWVSAISGSGGKTYYADSVKGRFTISRDNSKNTLYLQMNSLRAEDTAVYYCARDREAPFYTVYVTGFDVWGQGTLVTVSS VL: DIQMTQSPSSLSASVGDRVTITCQASQDISNYLNWYQQKPGKAPKLLIYDASNLETGVPSRFSGSGSGTDFTFTISSLQPEDIATYYCQQDADTPLTFGQGTKVEIK | 1.41 |  |  | Kd (IL-8 [6]): 1.41 nM
recombinant antibody (IgG1) 49-31 (antibody, V domains shown, IgG1 ('corresponding humanized IgG1'); also called 49-31 IgG1; Clone 49-31) VH: EVQLVESGGGLVQPGGSLRLSCAASGFTFSSYYMHWVRQAPGKGLEWVSAISGGGSSTYYADSVKGRFTISRDNSKNTLYLQMNSLRAEDTAVYYCARDLRIFEGRDAGFDVWGQGTLVTVS VL: DIQMTQSPSSLSASVGDRVTITCQASQDISNYLNWYQQKPGKAPKLLIYDASNLETGVPSRFSGSGSGTDFTFTISSLQPEDIATYYCQQDDDVPWTFGQGTKVEIK |  | 0.12 | 0.099 to 0.25 | Kd (IL-8 [7]): 0.117 nM; Kd (IL-8 [8]): 0.009 to 0.25 nM; Kd (IL-8 [9]): 0.21 to 0.22 nM
scFv 49-34 (scFv, V domains shown, also called Clone 49-34) VH: EVQLVESGGGLVQPGGSLRLSCAASGFTLGSYAMHWVRQAPGKGLEWVSAISGSGGSTYYADSVKGRFTISRDNSKNTLYLQMNSLRAEDTAVYYCARDRDTVSIEVGFDVWGQGTLVTVSS VL: DIQMTQSPSSLSASVGDRVTITCQASQDISNYLNWYQQKPGKAPKLLIYDASNLETGVPSRFSGSGSGTDFTFTISSLQPEDIATYYCQQDSAFPLTFGQGTKVEIK | 0.44 to 0.62 |  |  | 
scFv 43-12b (scFv, V domains shown, Derived from 43-12 by random mutagenesis of the CDRs and mRNA display) VH: EVQLVESGGGLVQPGGSLRLSCAASGFTFSSYLMHWVRQAPGKGLEWVSAISGSGGITYYADSVKGRFTISRDNSKNTLYLQMNSLRAEDTAVYYCARDREGWFWHSYGFDVWGQGTLVTVSS VL: not shown |  |  |  | Kd (IL-8 [10]): 2.3 nM; koff (IL-8 [10]): 0.00076 s⁻¹; kon (IL-8 [10]): 330000 M⁻¹ s⁻¹; Kd (IL-8 [11]): 2 nM; koff (IL-8 [11]): 0.0002 s⁻¹; kon (IL-8 [11]): 100000 M⁻¹ s⁻¹
recombinant antibody (IgG1) 43-12 (antibody, V domains shown, IgG1 ('corresponding humanized IgG1'); also called 43-12 IgG1; Clone 43-12) VH: EVQLVESGGGLVQPGGSLRLSCAASGFTFSSYLMHWVRQAPGKGLEWVSAISGSGGSTYYADSVKGRFTISRDNSKNTLYLQMNSLRAEDTAVYYCARDREGWFWHSYGFDVWGQGTLVTVSS VL: not shown |  | 0.31 | 0.43 to 0.78 | Kd (IL-8 [12]): 0.43 to 0.78 nM; Kd (IL-8 [13]): 0.31 nM; Kd (IL-8 [9]): 3.46 to 6.7 nM
scFv 49-32 (scFv, V domains shown, also called Clone 49-32) VH: EVQLVESGGGLVQPGGSLRLSCAASGFTFSSYAMHWVRQAPGKGLEWVSAIYGNGGSTYYADSVKGRFTISRDNSKNTLYLQMNSLRAEDTAVYYCARDLYTIEPREAFDVWGQGTLVTVSS VL: not shown | 0.21 to 0.24 |  |  | 
IgG1 49-32 (antibody, V domains shown, also called 49-32 IgG1; Clone 49-32) VH: EVQLVESGGGLVQPGGSLRLSCAASGFTFSSYAMHWVRQAPGKGLEWVSAIYGNGGSTYYADSVKGRFTISRDNSKNTLYLQMNSLRAEDTAVYYCARDLYTIEPREAFDVWGQGTLVTVSS VL: not shown |  | 0.33 to 0.36 | 0.77 to 0.87 | 
scFv 49-3 (scFv, V domains shown, also called Clone 49-3) VH: EVQLVESGGGLVQPGGSLRLSCAASGFTFSSYAMTWVRQAPGKGLEWVSVISGSGGSTRYADSVKGRFTISRDNSKNTLYLQMNSLRAEDTAVYYCARDRKFPYVQFFRNGFDVWGQGTLVTVSS VL: not shown | 1.26 |  |  | 
IgG1 49-3 (antibody, V domains shown, also called 49-3 IgG1; Clone 49-3) VH: EVQLVESGGGLVQPGGSLRLSCAASGFTFSSYAMTWVRQAPGKGLEWVSVISGSGGSTRYADSVKGRFTISRDNSKNTLYLQMNSLRAEDTAVYYCARDRKFPYVQFFRNGFDVWGQGTLVTVSS VL: not shown |  | 9.19 | 2.14 | 
